Assay results from patent US20250376505A1 (UNIVERSITE DE STRASBOURG, published 2025).

How the values were obtained:
[1] = molecular target: T1, VP1 pentamer of BKV genotype IV (BK virus genotype IV, UniProt P14996 30-300); assay: ELISA, coated VP1 pentamer
T1 construct: also called VP1 pentamers of genotype IV; GIV; not shown: N-terminal His-tag of pESPRIT002; C-terminal biotin acceptor peptide (BAP) of pESPRIT002

[2] = molecular target: T2, VP1 pentamer of BKV genotype II (BK virus genotype II, UniProt P14996 30-300); assay: ELISA, coated VP1 pentamer
T2 construct: also called VP1 pentamers of genotype II; GII; not shown: N-terminal His-tag of pESPRIT002; C-terminal biotin acceptor peptide (BAP) of pESPRIT002

[3] = molecular target: VP1 capsid protein on BKV genotype IVc2 pseudovirions (A-66H; AB369093) (BK virus genotype IVc2 (A-66H)); assay: cell-based or functional assay
[4] = molecular target: VP1 capsid protein on BKV genotype II pseudovirions (GBR-12; AB263920) (BK virus genotype II (GBR-12)); assay: cell-based or functional assay
[5] = molecular target: VP1 capsid protein on BKV genotype Ia pseudovirions (BK-D; JF894228) (BK virus genotype Ia (BK-D)); assay: cell-based or functional assay

B1: C9P1 (antibody, V domains shown)
VH: EVQLLESGGGLVQPGGSLRLSCVTSGFTFSSYSMTWVRQAPGKGLEWVSYISSSSRTISYADSVQGRFTISRDNAKNVLYLQMNSLRAEDTAVYYCARQAVAHFDYWGQGTLVTVSS
VL: EIVLTQSPGTLSLSPGERATLSCRASQRVSSNYLAWYQQKPGQAPRLLIYGASSRATGIPDRFSGSGSGTDFTLTISRLEPEDFAVYYCQQYGTSPRSFGQGTKVEIK
binding result [1]: no binding (tested: 50 µg/mL (starting concentration))
binding result [2]: no binding (tested: 50 µg/mL (starting concentration))

B2: D11P7 (antibody, V domains shown)
VH: EVQLVESGGGLVQPGGSLRLSCAASGFTFRSYTMDWVRQAPGKGLEWVSCISGSSNHKYYADSVRGRFTISRDNAKNSLFLQMNSLRAEDSAVYYCAREDDILTPLYGMDVWGPGTTVTVSS
VL: QSALTQPASVSGSPGQSITISCTGTSSDVGAYNYVSWYRLRPGKDPHLIIYDVSHRPAGVSNRFSGSKSGNTASLTISGLQAEDEDEYYCCSYAHRGTPLFGGGTKLTVL
binding result [1]: no binding (tested: 50 µg/mL (starting concentration))
binding result [2]: no binding (tested: 50 µg/mL (starting concentration))

B3: B5P4 (antibody, V domains shown)
VH: QVQLVQSGAEVKKPGSSVKVSCKASGGRFSRYGSSWVRQAPGQGLEWMGGIIPLLGTANYAQKFQDRVSITADESTSTVYMHLSSLRSEDTAVYYCATARREYDRPGAEYFIQWGQGTLVTVSS
VL: EIVMTQSPATLSVSPGERATLSCRASQSVSTNLAWYQQKPGQAPRLLIYDAFLRATGIPARFSGSGSGTEFTLTISSLQPEDFAVYYCQQYNYWPPLTFGGGTKVEIK
binding result [1]: no binding (tested: 50 µg/mL (starting concentration))
binding result [2]: no binding (tested: 50 µg/mL (starting concentration))

B4: D9P6 (antibody, V domains shown)
VH: QLQLQESGPGLVKPSETLSLTCTVSGTYISTNSYYWGWIRQPPGKGLEWIGSIEYGGSTYYNPSLRSRLTISVDTSKNHFSLRLSSVTAADTAMYYCASANSHYYDSGGYCAPSALDIWGQGTMVTVSS
VL: EIVMTQSPATLSVSPGERVTLSCRASQSASSHLAWYQHKRGQAPRLLIYAASSRATGIPARFSGRGSGTEFTLTISSLQSEDFAVYYCQQYNNWPPGYSFGQGTKLEIK
EC50 [1]: 4 µg/mL
EC50 [2]: 9 µg/mL
Neutralization PSV IC50 [3]: > 50 µg/mL
Neutralization PSV IC50 [4]: > 50 µg/mL
Neutralization PSV IC50 [5]: > 50 µg/mL

B5: E10P2 (antibody, V domains shown)
VH: EVQLLESGGALVQPGGSLRLSCAASGFTFRSYAMNWVRQAPGKGLEWVSSLSSSGTTTYYADSVKGRFTISRDNSKNTMYLQMDSLRGEDTAVYYCAKDRNAQWLGSEPLDPWGQGTLVTVSS
VL: EIVLTQSPGTLSLSPGERATLSCRASQSVSSSYLAWYQQKPGQAPRLLIYGASSRATGIPDRFSGSGSGTDFTLTISSLQPDDFAIYYCQQAYTFPWTFGQGTKLEIK
binding result [1]: no binding (tested: 50 µg/mL (starting concentration))
binding result [2]: no binding (tested: 50 µg/mL (starting concentration))
